Here are results for four molecules from article PMC11303406.

Data set [1] concerns SlSWIBb-R6A (Solanum lycopersicum). Description: MST. The following applies: MST: 50 mM Tris-HCl pH 8.0, 150 mM NaCl, 0.05% Tween-20, 25 C.
Data set [2] concerns SlSWIBb-K86A (Solanum lycopersicum). Kind of data set: MST. The following applies: MST: 50 mM Tris-HCl pH 8.0, 150 mM NaCl, 0.05% Tween-20, 25 C.
For data set [3], the system named is SlSWIBb-L44A (Solanum lycopersicum). Kind of data set: MST. The note with it: MST: 50 mM Tris-HCl pH 8.0, 150 mM NaCl, 0.05% Tween-20, 25 C.
Data set [4] deals with SlSWIBb (Solanum lycopersicum). Description: MST. The note with it: MST: 50 mM Tris-HCl pH 8.0, 150 mM NaCl, 0.05% Tween-20, 25 C.
Data set [5] deals with T1, SlGATA29 (Solanum lycopersicum, UniProt UPI0002BCBC7B 34-326).
T1 sequence: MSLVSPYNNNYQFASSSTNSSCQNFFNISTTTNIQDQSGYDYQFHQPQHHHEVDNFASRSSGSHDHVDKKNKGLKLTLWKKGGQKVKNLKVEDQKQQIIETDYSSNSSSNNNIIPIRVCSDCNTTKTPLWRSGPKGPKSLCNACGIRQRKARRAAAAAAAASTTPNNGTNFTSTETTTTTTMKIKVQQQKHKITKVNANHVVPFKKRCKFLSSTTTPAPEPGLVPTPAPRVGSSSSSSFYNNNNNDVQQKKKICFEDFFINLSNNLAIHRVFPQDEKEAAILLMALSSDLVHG
Description: EMSA. In general terms: Mobility shift assays separate free from complexed probe on a gel.

The target of data set [6] is SlSWIBa-allmut (Solanum lycopersicum, UniProt A0A3Q7HR54 1-124, R6A;L46A;K88A). Description: MST.
For data set [7], the target named is SlSWIBa (Solanum lycopersicum, UniProt A0A3Q7HR54 1-124). Kind of data set: EMSA.

In the case of “GAATATATGAACATATTAAAAGTGACATTATAAGAAATGATAAAATTCAAAATTAAGGTG (double strand) [60bp InDel, Cy5]”, the Kd in data set [1] turned out to be 40 nM; in data set [2], 42 nM; in data set [3] it was 47 nM; in data set [4], 35 nM.

B1: probe-60bp (dsDNA)
DNA 1: GAATATATGAACATATTAAAAGTGACATTATAAGAAATGATAAAATTCAAAATTAAGGTG
DNA 2: CACCTTAATTTTGAATTTTATCATTTCTTATAATGTCACTTTTAATATGTTCATATATTC
B1: in data set [5], the binding result is on record as “binds”.

B2: 60bp InDel, Cy5 (dsDNA)
DNA 1: GAATATATGAACATATTAAAAGTGACATTATAAGAAATGATAAAATTCAAAATTAAGGTG
DNA 2: CACCTTAATTTTGAATTTTATCATTTCTTATAATGTCACTTTTAATATGTTCATATATTC
On to B2, for which, in data set [6], the binding result was “no binding”.

B3: 30bpSWIB-mu4 (dsDNA)
DNA 1: TAAGAAATGATAAAATTCAAAATTAAGGTG
DNA 2: CACCTTAATTTTGAATTTTATCATTTCTTA
For the molecule B3, in data set [7], the binding result is reported as “no binding”.

The term Kd denotes the concentration at which binding is half-saturated.
